Results from PMC8799735, “Depletion of mitochondrial methionine adenosyltransferase α1 triggers mitochondrial dysfunction in alcohol-associated liver disease” (Nature Communications, 2022).

How the values were obtained:
Settings in all cases: partners not purified
[1] = biological target: T1, Peptidyl-prolyl cis/trans isomerase NIMA-interacting 1 (PIN1), endogenous mouse (mouse (endogenous in mouse hepatocytes, …, UniProt Q9QUR7 1-165)); assay: co-IP; AML-12 cell lysates, control or ethanol (100 mM, 48 h); IP with anti-PIN1 or anti-MATα1 antibodies, western blot, densitometry
T1 construct: source: endogenous, mouse hepatocyte lysate, mouse liver whole lysates and cytosolic fractions, AML-12 lysate
T1 sequence (Q9QUR7 whole entry): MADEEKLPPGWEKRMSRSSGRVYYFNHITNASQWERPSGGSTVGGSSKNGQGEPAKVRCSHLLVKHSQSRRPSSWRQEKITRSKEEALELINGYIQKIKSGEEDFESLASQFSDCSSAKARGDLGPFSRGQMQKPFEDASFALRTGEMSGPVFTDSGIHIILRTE

[2] = biological target: T1, Peptidyl-prolyl cis/trans isomerase …; assay: co-IP; whole liver lysates of pair-fed and ethanol-fed mice (NIAAA model); IP with anti-PIN1 or anti-MATα1 antibodies, western blot against MATα1 or PIN1, densitometry
[3] = biological target: T2, Peptidyl-prolyl cis/trans isomerase NIMA-interacting 1 (PIN1), endogenous human (human (endogenous in human hepatocytes, …, UniProt Q13526 1-163)); assay: co-IP; human normal and end-stage cirrhotic ALD liver lysates; IP with anti-PIN1 or anti-MATα1 antibodies, western blot against MATα1 or PIN1, densitometry
T2 construct: source: endogenous, human hepatocyte lysate, human liver lysates and HepG2 lysate
T2 sequence (Q13526 whole entry): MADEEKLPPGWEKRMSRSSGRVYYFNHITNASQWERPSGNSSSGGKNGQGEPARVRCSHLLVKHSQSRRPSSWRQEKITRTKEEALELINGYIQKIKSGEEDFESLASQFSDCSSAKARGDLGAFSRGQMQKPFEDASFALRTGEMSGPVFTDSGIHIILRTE

Binder	fold of co-precipitated signal, ethanol-treated against control AML-12 cells [1] [fold]	fold of co-precipitated signal, ethanol-fed against pair-fed mouse livers [2] [fold]	fold of co-precipitated signal, alcoholic cirrhotic livers against normal human livers [3] [fold]
Methionine adenosyltransferase α1 (MATα1), endogenous mouse (natural protein, Methionine adenosyltransferase α1 (MATα1), mouse, endogenous; source: endogenous, mouse hepatocyte lysate, mouse liver whole lysates and cytosolic fractions, AML-12 lysate) not shown	3.5	2	–
Methionine adenosyltransferase α1 (MATα1), endogenous human (natural protein, Methionine adenosyltransferase α1 (MATα1), human, endogenous in hepatocytes and liver; source: endogenous, human hepatocyte lysate and human liver lysates (normal, ALD)) not shown	–	–	3.3
